Among the data in patent publication EP1899377B1 are Kd, koff and kon values, retold here.

The assay concerns the target GST-human NOGO-A56 (human) (UniProt Q9NQC3). Put plainly: SPR (Biacore T100), reverse format: antibody captured on Protein A, human NOGO 5+6 GST as analyte, 1:1 model; mean (SD) of 5 or 6 runs.

GST-human NOGO-A56 (human), sequence (Q9NQC3 586-785, form in doubt): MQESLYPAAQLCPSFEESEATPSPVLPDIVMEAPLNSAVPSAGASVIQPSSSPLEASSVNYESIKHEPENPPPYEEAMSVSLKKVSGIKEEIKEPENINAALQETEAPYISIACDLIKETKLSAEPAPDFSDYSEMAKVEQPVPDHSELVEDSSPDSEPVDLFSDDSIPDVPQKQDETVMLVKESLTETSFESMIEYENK

Usually Kd stands for the concentration at which binding is half-saturated. High values mean a looser complex, low ones a tighter complex. As usually defined, the koff is the first-order rate constant of dissociation. A low value points to slow dissociation. As a reminder, the kon is a measure of how fast the partners come together. Substance 11C7 (chimeric version) (antibody) gave a Kd of 0.42 nM, a koff of 0.000117 s⁻¹ and a kon of 285000 M⁻¹ s⁻¹.
